{
  "source": "paper PMC4442680",
  "about": "“Crystal structure of human nicotinic acid phosphoribosyltransferase” (FEBS Open Bio, 2015)",
  "molecular_target": "the molecule itself",
  "experiment": "crystal structure; ligand-free enzyme; sitting drops, 15 mg/mL protein preincubated with 1 mM Acetyl-CoA and 5 mM DTT, 0.1 M Sodium cacodylate pH 6.5, 1.7 M Sodium acetate, 4 °C; P212121, two molecules per asymmetric unit; 2.9 Å",
  "data": [
    {"protein": "human nicotinic acid phosphoribosyltransferase (enzyme, UniProt Q6XQN6 1-538, looked up, human nicotinic acid phosphoribosyltransferase (EC 2.4.2.11); also called human NaPRTase; hNaPRTase) MAAEQDPEARAAARPLLTDLYQATMALGYWRAGRARDAAEFELFFRRCPFGGAFALAAGLRDCVRFLRAFRLRDADVQFLASVLPPDTDPAFFEHLRALDCSEVTVRALPEGSLAFPGVPLLQVSGPLLVVQLLETPLLCLVSYASLVATNAARLRLIAGPEKRLLEMGLRRAQGPDGGLTASTYSYLGGFDSSSNVLAGQLRGVPVAGTLAHSFVTSFSGSEVPPDPMLAPAAGEGPGVDLAAKAQVWLEQVCAHLGLGVQEPHPGERAAFVAYALAFPRAFQGLLDTYSVWRSGLPNFLAVALALGELGYRAVGVRLDSGDLLQQAQEIRKVFRAAAAQFQVPWLESVLIVVSNNIDEEALARLAQEGSEVNVIGIGTSVVTCPQQPSLGGVYKLVAVGGQPRMKLTEDPEKQTLPGSKAAFRLLGSDGSPLMDMLQLAEEPVPQAGQELRVWPPGAQEPCTVRPAQVEPLLRLCLQQGQLCEPLPSLAESRALAQLSLSRLSPEHRRLRSPAQYQVVLSERLQALVNSLCAGQSP", "values": [
      {"measurement": "stoichiometry N", "value": 2}
    ]}
  ]
}
